Reference: patent US20220184120A1

Molecular target: full-length MUC1 expressed on HCT-116 cells (cleavage resistant single cell clone) (Homo sapiens (Human)) (UniProt P15941)
Assay: flow cytometry, HCT-MUC1-41TR cells (FIG. 36D)

percent positive cells: 95%
Substance: VU4H5 commercially available mouse monoclonal anti-MUC1 tandem repeat antibody
